The text below walks through data of publication PMC9958085, “A novel mechanism underlying allosteric regulation of ADAMTS-13 revealed by hydrogen−deuterium exchange plus mass spectrometry” (Research and Practice in Thrombosis and Haemostasis, 2022).

The target of assay [1] is T1, ADAMTS-13 CUB domain fragment.
T1 chain: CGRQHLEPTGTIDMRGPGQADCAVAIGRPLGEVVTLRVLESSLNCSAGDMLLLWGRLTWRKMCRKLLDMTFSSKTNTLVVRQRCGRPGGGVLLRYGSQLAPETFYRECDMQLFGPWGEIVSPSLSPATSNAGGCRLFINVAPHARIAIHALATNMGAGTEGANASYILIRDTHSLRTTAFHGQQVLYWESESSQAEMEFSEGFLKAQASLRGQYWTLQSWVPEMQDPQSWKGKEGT
Nature of the assay: SPR; CUB fragment immobilised on a CM5 chip through amine-coupling; N-terminal fragment perfused at 30 μl/min for 120 s, dissociation 300 s; KD from maximal RU as a function of concentration (0-1.0 μM), Prism 8.0. The note with it: both partners purified.

The target of assay [2] is T2, N-terminal ADAMTS-13 fragment MDTCS (aa1-685) (UniProt Q76LX8 30-685).
T2 construct: signal peptide in the construct; ADAMTS-13, N-terminal fragment MDTCS (metalloprotease, disintegrin-like domain, first TSP1 repeat, cysteine-rich and spacer domain), aa1-685; The signal peptide and propeptide are probably removed on secretion (surmise); also called ADAMTS-13 variant truncated after spacer domain; source: Drosophila (S2) cell line, purified
T2 sequence (looked up): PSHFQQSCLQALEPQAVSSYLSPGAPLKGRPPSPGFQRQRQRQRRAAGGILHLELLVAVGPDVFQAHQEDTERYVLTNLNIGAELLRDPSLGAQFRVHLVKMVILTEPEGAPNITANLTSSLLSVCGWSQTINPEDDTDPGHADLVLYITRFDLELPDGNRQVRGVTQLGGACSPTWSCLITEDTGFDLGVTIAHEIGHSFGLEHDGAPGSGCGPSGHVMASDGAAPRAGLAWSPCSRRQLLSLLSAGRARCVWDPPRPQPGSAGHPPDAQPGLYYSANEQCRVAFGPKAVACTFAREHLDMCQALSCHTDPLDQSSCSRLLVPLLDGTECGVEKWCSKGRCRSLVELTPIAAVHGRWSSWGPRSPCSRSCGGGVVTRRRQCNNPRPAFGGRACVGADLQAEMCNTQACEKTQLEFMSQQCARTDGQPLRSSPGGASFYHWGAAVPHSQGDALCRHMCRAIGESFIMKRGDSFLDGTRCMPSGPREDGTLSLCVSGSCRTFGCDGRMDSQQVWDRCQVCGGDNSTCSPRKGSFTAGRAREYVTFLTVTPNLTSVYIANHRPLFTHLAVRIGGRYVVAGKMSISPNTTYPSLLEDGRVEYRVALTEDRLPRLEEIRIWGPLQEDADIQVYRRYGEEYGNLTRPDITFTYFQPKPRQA
The assay is described as above. Conditions: both partners purified.

B1: ADAMTS-13 construct consisting of a disintegrin, the first thrombospondin type 1 repeat, a cysteine-rich and a spacer domain (DTCS) (domain or fragment)
chain: RPQPGSAGHPPDAQPGLYYSANEQCRVAFGPKAVACTFAREHLDMCQALSCHTDPLDQSSCSRLLVPLLDGTECGVEKWCSKGRCRSLVELTPIAAVHGRWSSWGPRSPCSRSCGGGVVTRRRQCNNPRPAFGGRACVGADLQAEMCNTQACEKTQLEFMSQQCARTDGQPLRSSPGGASFYHWGAAVPHSQGDALCRHMCRAIGESFIMKRGDSFLDGTRCMPSGPREDGTLSLCVSGSCRTFGCDGRMDSQQVWDRCQVCGGDNSTCSPRKGSFTAGRAREYVTFLTVTPNLTSVYIANHRPLFTHLAVRIGGRYVVAGKMSISPNTTYPSLLEDGRVEYRVALTEDRLPRLEEIRIWGPLQEDADIQVYRRYGEEYGNLTRPDITFTYFQPKPRQA
modifications: disintegrin start by convention, end 685 from printed MDTCS limit; HEK-293 expressed (likely glycosylated) / CUB1+CUB2 taken from the conventional CUB1 start to the C-terminus; HEK-293 expressed …
In the case of B1, the Kd in assay [1] was determined as 460 nM.

B2: ADAMTS-13 CUB domain fragment (domain or fragment)
chain: T1 chain
modifications: CUB1+CUB2 taken from the conventional CUB1 start to the C-terminus; HEK-293 expressed (likely N-glycosylated); amine-coupled to CM5 chip
B2: the Kd in assay [2] worked out at 330 nM. That is a sub-micromolar value.
